Values quoted from earlier work in PMC3826259.

Assays:
[1] = target: HIV-1 protease mature PR (Human immunodeficiency virus 1) (UniProt O93215)
[2] = target: p6*-PR precursor p6*-PR (Human immunodeficiency virus 1) (UniProt O93215)

Row | Substance | Kd [1] [µM] | Kd [2] [µM]
1 | HIV-1 protease mature PR (from UniProt O93215) | < 0.005 | 
2 | p6*-PR precursor p6*-PR (from UniProt O93215) |  | 0.7
